Results taken from article PMC10097598, “Cryo-EM structure of the transposon-associated TnpB enzyme”.

Biological target: T1, TnpB (ISDra2) (Deinococcus radiodurans (ISDra2), UniProt Q7DF80 1-408)
T1 sequence: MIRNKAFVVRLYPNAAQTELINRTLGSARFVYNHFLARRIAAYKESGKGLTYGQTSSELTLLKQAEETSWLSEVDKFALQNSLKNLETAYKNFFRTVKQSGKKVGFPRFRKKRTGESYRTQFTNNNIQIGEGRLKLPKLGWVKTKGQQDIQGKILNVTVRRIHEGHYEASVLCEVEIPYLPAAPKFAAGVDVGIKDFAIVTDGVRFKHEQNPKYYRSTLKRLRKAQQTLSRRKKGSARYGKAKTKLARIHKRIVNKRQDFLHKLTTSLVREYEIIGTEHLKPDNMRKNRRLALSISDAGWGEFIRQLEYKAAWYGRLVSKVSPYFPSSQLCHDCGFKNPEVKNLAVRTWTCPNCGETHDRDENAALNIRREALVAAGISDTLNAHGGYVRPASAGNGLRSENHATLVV
Assay: co-purification (urea-PAGE, northern blot); bound RNA is 5'-processed, 100-160 nt; Ternary complex: TnpB–ωRNA + target DNA, room temperature 30 min; SEC in 20 mM Tris-HCl pH 8.0, 150 mM NaCl, 2 mM MgCl2, 10 uM ZnCl2, 1 mM DTT. Copurification:
Conditions: protein: recombinant; tags: N-terminal MBP, removed with HRV3C; pseudoknot, stems 1-3, triple helix

B1: ωRNA full length (as co-expressed) (structured_RNA)
RNA: GAUUCAAGAAUCCCGAAGUGAAGAAUCUUGCCGUCCGUACAUGGACUUGCCCGAACUGUGGGGAAACCCAUGACCGAGACGAGAACGCUGCGCUGAACAUUCGGCGUGAAGCGUUGGUGGCUGCGGGAAUCUCAGACACCUUAAACGCUCAUGGAGGCUAUGUCAGACCUGCUUCGGCGGGCAAUGGUCUGCGAAGUGAGAAUCACGCGACUUUAGUCGUGUGAGGUUCAAGAGUCCCUUGGCGCCC
- binding result: binds
